Among the data in paper PMC4754655 (2016) are Kd values, retold here.

The chains are these.
B1: GEBT403 mature Fab (Fab, V domains shown)
VH: EVQLVQSGAEVKKPGSSVKVSCKASGYTFTDYYMHWVRQAPGQGLEWMGEINPKTGGTNYAQKFQGRVTMTRDTSTSTAYMELSSLRSEDTAIYSCARGGQRLIPLRRFYFYYWGQGVLVTVSS
VL: QSVLTQPPSVSGAPGQKVTISCTGSSSNIGGYDVHWYQQLPGMAPKLLIYDNNERPSGISDRFSGSKSGTSASLAITGLQTEDEADYYCQSYDSSMNAWVFGGGTRLTVL
B2: GEBT403 igL-reverted Fab (Fab, V domains shown)
VH: QVQLVQSGAEVKKPGSSVKVSCKASGYTFTDYYMHWVRQAPGQGLEWMGEINPKTGGTNYAQKFQGRVTMTRDTSTSTAYMELSSLRSEDTAVYYCARGGQRLIPLRRFYFYYWGQGVLVTVSS
VL: QSVLTQPPSVSGAPGQKVTISCTGSSSNIGGYDVHWYQQLPGMAPKLLIYDNNERPSGISDRFSGSKSATSASLAITGLQTEDEADYYCQSYDSSMNAWVFGGGTRLTVL
B3: GEBT403, inferred germline (igL) reverted IgG (antibody, V domains shown)
VH: QVQLVQSGAEVKKPGSSVKVSCKASGYTFTDYYMHWVRQAPGQGLEWMGEINPKTGGTNYAQKFQGRVTMTRDTSTSTAYMELSSLRSEDTAVYYCARGGQRLIPLRRFYFYYWGQGVLVTVSS
VL: QSVLTQPPSVSGAPGQKVTISCTGSSSNIGGYDVHWYQQLPGMAPKLLIYDNNERPSGISDRFSGSKSATSASLAITGLQTEDEADYYCQSYDSSMNAWVFGGGTRLTVL
B4: GEBT403, mature IgG (antibody, V domains shown)
VH: EVQLVQSGAEVKKPGSSVKVSCKASGYTFTDYYMHWVRQAPGQGLEWMGEINPKTGGTNYAQKFQGRVTMTRDTSTSTAYMELSSLRSEDTAIYSCARGGQRLIPLRRFYFYYWGQGVLVTVSS
VL: QSVLTQPPSVSGAPGQKVTISCTGSSSNIGGYDVHWYQQLPGMAPKLLIYDNNERPSGISDRFSGSKSGTSASLAITGLQTEDEADYYCQSYDSSMNAWVFGGGTRLTVL
B5: GEBT412, mature IgG (antibody, V domains shown)
VH: QVQLVESGGGLVQPGGSLRLACAASGFIFSNHGMHWVRQAPGKGLEWVAVIWYDGSEKYYADSVKDRFTISRDNSKNMLYLQMNNLKLVDTAVYYCARRGCTGSGCYLYYYGLDSWGQGVVVTVSS
VL: DIQMTQSPSSLSASVGDTVTITCRASQGISSHLNWFQQKPGKAPKLLIYAATTLQSGVPSRFSGSGSGTDFTLTISSLQPEDFATYYCLQHNFYPYSFGQGTKVEIK
B6: GEBT391, inferred germline (igL) reverted IgG (antibody, V domains shown)
VH: EVQLVESGGGLVQPGGSLRLSCAASGFTFSSYGMHWVRQAPGKGLEWVAVIWYDGSKKYYADSVKDRFTISRDNSKNMLYLQMNNLKLEDTAVYYCARRGCTGSGCYLYYYALDSWGQGVVVTVSS
VL: DIQMTQSPSSLSASVGDTVTITCRASQGISSYLNWFQQKPGKAPKLLIYAASSLESGVPSRFSGSGSGTEFTLTISSLQPEDFATYYCLQHNFYPYSFGQGTKVEIK
B7: GEBT412, inferred germline (igL) reverted IgG (antibody, V domains shown)
VH: QVQLVESGGGLVQPGGSLRLSCAASGFTFSSYGMHWVRQAPGKGLEWVAVIWYDGSKKYYADSVKDRFTISRDNSKNMLYLQMNNLKLEDTAVYYCARRGCTGSGCYLYYYGLDSWGQGVVVTVSS
VL: DIQMTQSPSSLSASVGDTVTITCRASQGISSYLNWFQQKPGKAPKLLIYAASSLESGVPSRFSGSGSGTEFTLTISSLQPEDFATYYCLQHNFYPYSFGQGTKVEIK
B8: GEBT391, mature IgG (antibody, V domains shown)
VH: QVQLVESGGGLVQPGGSLRLSCAASGFTFSSYGMHWVRQAPGKGLEWVAVIWFDGSEKYYVDSVKDRFTISRDNSKNMLYLQMNNLKLDDTAVYYCARRGCTGSGCYLYYYALDSWGQGVVVTVSS
VL: DIQMTQSPSSLSASVGDTVTITCRASQGISSYLNWFQQKPGKAPKLLIYAATTLQSGVPSRFSGSGSGTDFTLTISSLQPEDFATYYCLQHNFYPYSFGQGTKVEIK
B9: GEBT404, mature IgG (antibody, V domains shown)
VH: EVQLVESGGGLAKPGGSLRLSCAASGFTFSNYWMYWVRQAPGKGLEWISAINSAGSRTYYPDSVKGRFTISRENAKNTLYLQMDSLRAEDTAVYYCAKGRIAIFGLVITYFDYWGQGVLVTVSS
VL: DIQMTQSPSSLSASVGDRVTITCRASQGITNDLAWYQQKPGETPKLLIYDASSLQSGIPSRFSGSGSGTDFTLTISSLQPEDFATYYCQHYYSTPPTFGGGTKVEIK
B10: GEBT404, inferred germline (igL) reverted IgG (antibody, V domains shown)
VH: EVQLVESGGGLAKPGGSLRLSCAASGFTFSNYWMHWVRQAPGKGLEWISAINSAGSSTYYADSVKGRFTISRENAKNTLYLQMDGLRAEDTAVYYCAKGRIAIFGLVITYFDYWGQGVLVTVSS
VL: DIQMTQSPSSLSASVGDRVTITCQASQGITNDLAWYQQKPGETPKLLIYEASSLQSGIPSRFSGSGSGTDFTLTISSLQSEDFATYYCQHYYSTPPTFGGGTKVEIK
B11: GEBT414, mature IgG (antibody, V domains shown)
VH: EVQLVQSGAEVKRPGESLRISCKTSGYSFTGSWISWVRQMPGKGLDWMGNIYPGDSDTRYNPSFQGHVTISADKSISTTYLQWSSLKASDTATYYCAKGGGITIFGLLHYPLDSWGQGVVVTVSS
VL: DIQMTQSPSSLSASVGDTVTITCRASQGINNWLAWYQQKPGKAPKLLIYKASSLQSGVPSRFSGSGSGTDFTLTISSLQSEDFATYYCQQYNSGPLTFGGGTKVEIK
B12: GEBT414, inferred germline (igL) reverted IgG (antibody, V domains shown)
VH: EVQLVQSGAEVKRPGESLRISCKTSGYSFTGSWISWVRQMPGKGLEWMGSIYPGDSDTRYNPSFQGHVTISADKSISTTYLQWSSLKASDTATYYCAKGGGITIFGLLHYPLDSWGQGVVVTVSS
VL: DIQMTQSPASLSASVGDRVTITCQASQGISSWLAWYQQKPGKAPKLLLYKAPGLQSGVPSMFSGSGSGTEFTLTISSLQPEDFATYYCQQYNSGPLTFGGGTKVEIK

The first assay has as its target T1, YU2 gp140-foldon trimer (HIV-1 isolate YU2 (clade B) | ). As to the kind of experiment: BLI.
For B1, the Kd worked out at 5 nM. Still for that read-out and setting: under B2 stands 2 nM.

A further assay concerns the target YU2 gp120, soluble monomer (HIV-1 isolate YU2 (clade B), UniProt P35961 32-498). Put plainly: BLI.
Regarding B3, the dissociation constant Kd came to 11 nM. On the same count and under the same terms, under B4 stands 13 nM; under B5, 11 nM.

The molecule B6 registered a Kd of 118 nM. B7 returned a Kd of 104 nM. Same read-out and setting: under B8 stands 6 nM; under B9, 43 nM. Same read-out and setting: the figure for B10 is 56 nM.

As for B11, the dissociation constant Kd worked out at 24 nM. As to B12, the Kd is 63 nM.

Another assay deals with T1, YU2 gp140-foldon trimer. As to the kind of experiment: SPR.
For B1, the dissociation constant Kd was determined as 7 nM.
